T1: PapD (wild type) (E. coli), P15319
T1 chain: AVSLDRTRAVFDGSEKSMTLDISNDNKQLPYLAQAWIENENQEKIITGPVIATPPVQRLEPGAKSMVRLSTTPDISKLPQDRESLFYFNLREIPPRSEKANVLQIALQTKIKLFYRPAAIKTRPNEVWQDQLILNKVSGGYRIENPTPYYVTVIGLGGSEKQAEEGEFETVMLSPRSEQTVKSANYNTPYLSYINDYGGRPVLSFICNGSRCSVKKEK


Molecular target: T1, PapD (wild type) (E. coli), P15319

| Binder | % Inhibition [%] |
| --- | --- |
| LSFP (modifications not checked) [G1′-4′] | 0 |
| YALAPNAVIPTSLALL (modifications not checked) [MS] | 1 |

From US7025971
